Test results as given in patent US20210163590A1 (WUXI BIOLOGICS IRELAND, published 2021).

T1: human TIM-1 (human, UniProt Q96D42 21-290, limits assumed)
T1 sequence (looked up): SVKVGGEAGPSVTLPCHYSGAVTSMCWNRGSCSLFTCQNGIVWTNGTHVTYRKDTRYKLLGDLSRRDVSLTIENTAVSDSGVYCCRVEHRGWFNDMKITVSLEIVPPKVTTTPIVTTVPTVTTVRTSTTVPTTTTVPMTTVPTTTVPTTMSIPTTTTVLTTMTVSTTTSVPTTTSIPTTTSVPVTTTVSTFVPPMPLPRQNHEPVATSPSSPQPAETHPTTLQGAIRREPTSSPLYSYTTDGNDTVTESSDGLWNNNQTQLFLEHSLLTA

T2: human TIM-4 (human, UniProt Q96H15 25-314, limits assumed)
T2 sequence (looked up): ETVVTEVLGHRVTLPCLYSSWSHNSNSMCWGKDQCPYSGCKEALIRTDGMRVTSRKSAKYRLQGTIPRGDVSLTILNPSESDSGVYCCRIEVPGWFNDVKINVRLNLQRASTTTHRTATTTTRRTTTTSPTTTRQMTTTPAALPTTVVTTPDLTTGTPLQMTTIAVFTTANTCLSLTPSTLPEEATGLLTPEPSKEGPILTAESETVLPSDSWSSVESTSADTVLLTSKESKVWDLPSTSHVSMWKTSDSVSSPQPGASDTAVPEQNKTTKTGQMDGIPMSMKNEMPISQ

T3: cynomolgus monkey TIM-3 on the cell surface (cynomolgus monkey, UniProt A0A2K5U3G7 22-294)
T3 construct: whole, on cells; also called cyno TIM-3-expressing transfectant cells
T3 sequence: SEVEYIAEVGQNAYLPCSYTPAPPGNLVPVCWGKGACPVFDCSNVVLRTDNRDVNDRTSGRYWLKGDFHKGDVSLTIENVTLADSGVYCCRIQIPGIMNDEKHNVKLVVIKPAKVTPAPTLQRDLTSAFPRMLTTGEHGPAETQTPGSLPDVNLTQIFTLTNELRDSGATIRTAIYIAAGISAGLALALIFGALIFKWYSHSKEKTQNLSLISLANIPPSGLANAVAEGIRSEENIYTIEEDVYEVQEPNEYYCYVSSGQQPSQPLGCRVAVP

T4: W340-cynoPro1.ECD.Fc (cynomolgus monkey, UniProt A0A2K5U3G7 22-195)
T4 construct: extracellular domain; also called cynomolgus monkey TIM-3.ECD protein; not shown: C-terminal Fc tag
T4 sequence: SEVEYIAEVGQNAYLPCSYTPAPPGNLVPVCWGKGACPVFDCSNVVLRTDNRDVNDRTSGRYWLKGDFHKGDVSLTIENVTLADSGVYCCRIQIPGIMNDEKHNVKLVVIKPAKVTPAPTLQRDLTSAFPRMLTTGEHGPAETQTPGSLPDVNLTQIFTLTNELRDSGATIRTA


Legend:
hTIM-3.ECD.his [1] = target: T5, hTIM-3.ECD.his (human, UniProt Q8TDQ0 22-202); assay: SPR, full kinetics
T5 construct: extracellular domain; also called W340-hPro1.ECD.His; human TIM-3 (SPR analyte); not shown: C-terminal His tag

hTIM-3.ECD.his [2] = target: T5, hTIM-3.ECD.his; assay: SPR Koff ranking; antibody captured on anti-human IgG GLM chip, analyte W340-hPro1.ECD.His
Protocol: 3.4 Koff Ranking: the humanized variants, the parental chimeric antibody, as well as negative control were injected to the sensor chip (GLM), which was pre-coated with anti-human IgG.

human TIM-1 = target: T1, human TIM-1; assay: ELISA on plate-coated human TIM-1
Description: (§1) The binding of the antibodies to the plates was detected by corresponding HRP-conjugated 2nd antibodies (see FIGS. 3A-3C).

human TIM-4 = target: T2, human TIM-4; assay: ELISA on plate-coated human TIM-4
Description: as §1

[3] = target: T3, cynomolgus monkey TIM-3 on the cell …; assay: flow cytometry on cyno TIM-3-expressing transfectant cells
Protocol: Cross species binding (FACS): the binding of TIM-3 antibodies to cynomolgus monkey TIM-3 was determined by FACS. […] MFI of the cells was measured by a flow cytometer and analyzed by FlowJo.

W340-cynoPro1.ECD.Fc = target: T4, W340-cynoPro1.ECD.Fc; assay: SPR (Biacore 8K); cyno TIM-3 ECD on CM5 chip, antibody as analyte, 1:1 fit
Description: Full kinetic binding affinity to cynomolgus monkey TIM-3 tested by surface Plasmon resonance (SPR): the sensor chip (CM5) was pre-coated with cynomolgus monkey TIM-3.ECD protein. […] The association and dissociation curve was fit to a 1:1 kinetics mode using Biacore 8K software (Table 8).

Kd (hTIM-3.ECD.his [1]) [nM]	koff (hTIM-3.ECD.his [1]) [s⁻¹]	kon (hTIM-3.ECD.his [1]) [M⁻¹ s⁻¹]	koff (hTIM-3.ECD.his [2]) [s⁻¹]	binding result (human TIM-1)	binding result (human TIM-4)	EC50 [3] [nM]	Kd (W340-cynoPro1.ECD.Fc) [nM]	Binder
0.00937	2.12e-05	2.26e+06	1.95e-06	–	–	–	–	chimeric W3402-x (antibody, human IgG4, V domains shown, also called parental chimeric W3402-x; Parental xAb) VH: QVQLKESGPGLVQSSQTLSLTCTVSGFSLTNYGVGWIRQPPGKGLEWIAIMTSGGSTYYNSALRARLNINRDTSKSQVFLEVNSLHTEDTATYFCTRDGTTVETLFDYWGQGLMVTVSS VL: DVVLTQTPSTLSAIIGQSVSISCRSSQSLSDSAGITYLYWYLQRPGQSPQLLIYLASNLGSGVPNRFSGSGSGTDFTLKISGVEPEDLGVYHCMQGIHVPLTFGSGTKLEIK
–	–	–	–	no binding (tested: 66.7 nM)	no binding (tested: 66.7 nM)	0.32	0.0209	W3402-2.131.17-z3 (antibody, IgG4, V domains shown, Humanized monoclonal antibody with a kappa light chain; also called W3402-z3; humanized variant W3402-z3) VH: QVQLQESGPGLVKPSETLSLTCTVSGFSLTNYGVGWIRQPPGKGLEWIGIMTSGGSTYYNSALRARVTINRDTSKNQFSLKLSSVTAADTAVYYCTRDGTTVETLFDYWGQGTMVTVSS VL: DIVMTQTPLSLSVTPGQPASISCRSSQSLSDSAGITYLYWYLQKPGQSPQLLIYLASNLGSGVPDRFSGSGSGTDFTLKISRVEAEDVGVYYCMQGIHVPLTFGQGTKLEIK
